Results: doi:10.1101/2024.09.29.615664

Biological target: reconstituted mononucleosome with unmodified H3K56 (UniProt P68431)
Assay: pull-down

fold of MSH3 pulled down against the H3K56ac-nucleosome: 4 fold
Substance: MutSβ (MSH2-MSH3 complex), purified (from UniProt P43246;P20585)
